Measured values as given in patent publication US7276644.

Target: actin of the acto-HMM complexes in Example II
Assay: stopped-flow; effects of ADP on ATP-mediated dissociation of acto-HMM

maximum rate constant for dissociation of acto-HMM (ATP-mediated, with ADP) [s⁻¹] | Substance
35 | HMM from pig β cardiac myosin heavy chain (from UniProt P79293 1-1282) (enzyme)
140 | HMM from rat β cardiac myosin heavy chain (hypothyroid rat) (from UniProt P02564 1-1282) (enzyme)
600 | rat α cardiac myosin HMM (chymotryptic heavy meromyosin of native hyperthyroid rat ventricular α-myosin) (from UniProt P02563 1-1285) (enzyme)
